Measured values reported in US20090208538A1 (ROCKEFELLER UNIVERSITY, published 2009).

What was measured:
[1] = target: T1, HLA-A*0201 (human); assay: iTopia net score;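 also: combined score from peptide binding, ED₅₀ and half-life of peptide complexes with plate-bound HLA-A2 molecules, computed by a proprietary formula in iTopia software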
T1 construct: also called HLA-A2.1; HLA A2.1

[2] = target: T1, HLA-A*0201; assay: iTopia affinity;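 also: peptide affinity for plate-bound HLA-A2 molecules (iTopia system), with ED50 derived from an eight-point serial peptide dilution series run under binding assay conditions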
[3] = target: T1, HLA-A*0201; assay: iTopia off-rate;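 also: Half-life of peptide complexes with plate-bound HLA-A2, peptides loaded 18 h at 21 C, washed, then held at 37 C over several time points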
[4] = target: T1, HLA-A*0201; assay: iTopia binding;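 also: each peptide tested for binding to HLA-A2 molecules immobilized on plates, using a commercial screening kit run per its supplied protocol and reagents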

SLTETIECL [cdr2 114-122 SLTETIECL]
iScore [1]: 0.518
ED50 [2]: 4 µM
t1/2 [3]: 9.3
binding vs positive control [4]: > 30%
